Patent US20260242478A1 (published 2026)
Read-outs that look alike come from different tables or passages of the source.

Tests used:
[1] = target: T1, Peptide-120; test: BLI (Octet), biotinylated peptide on sensor, Fab in solution
T1 peptide: YCEGHLPEYIEKCL

[2] = target: T2, Peptide-134; test: as above
T2 peptide: YCEGHLPEYIQKCL

[3] = target: T3, Peptide-132; test: as above
T3 peptide: YCEGHLPEYRNKCL

[4] = target: T4, Peptide-135; test: as above
T4 peptide: YCEGHLPEYIWKCL

[5] = target: T5, Peptide-126; test: as above
T5 peptide: YCEGHLPEYREKCL

[6] = target: T6, Peptide-121; test: as above
T6 peptide: YCEGHAPEYIAKCL

[7] = target: T7, Peptide-127; test: as above
T7 peptide: YCEGHLPEYLAKCL

[8] = target: T8, Peptide-87; test: as above
T8 peptide: YCAGHAWQYINKCL

[9] = target: T1, Peptide-120; test: binding ELISA, biotinylated peptide on neutravidin plate, Fab titrated
[10] = target: T9, Peptide-136; test: as above
T9 peptide: YCEGHAPEYIGKCL

[11] = target: T2, Peptide-134; test: as above
[12] = target: T10, Peptide-129; test: as above
T10 peptide: YCEGHSSEYIQKCL

[13] = target: T3, Peptide-132; test: as above
[14] = target: T11, Peptide-133; test: as above
T11 peptide: YCEGHLPEYLEKCV

[15] = target: T12, Peptide-119; test: as above
T12 peptide: YCEGHEGIYFWKCL

[16] = target: T13, Peptide-128; test: as above
T13 peptide: YCEGHSQEYLWKCL

[17] = target: T4, Peptide-135; test: as above
[18] = target: T14, Peptide-125; test: as above
T14 peptide: YCEGHLPEYLGKCL

[19] = target: T15, Peptide-122; test: as above
T15 peptide: YCEGHAPEYIRKCL

[20] = target: T16, Peptide-123; test: as above
T16 peptide: YCEGHAPEYIWKCL

[21] = target: T17, Peptide-124; test: as above
T17 peptide: YCEGHSQENIWKCL

[22] = target: T5, Peptide-126; test: as above
[23] = target: T6, Peptide-121; test: as above
[24] = target: T18, Peptide-118; test: as above
T18 peptide: YCEGHRPEYILKCL

[25] = target: T7, Peptide-127; test: as above
[26] = target: T8, Peptide-87; test: as above
[27] = target: T19, Peptide-117; test: as above
T19 peptide: YCEGHSPEYILKCL

[28] = target: T20, Peptide-84; test: as above
T20 peptide: YCAGHSPINIGKCL

[29] = target: T21, Peptide-79; test: as above
T21 peptide: ACDTYFAGMINECF

[30] = target: T22, Peptide-92; test: as above
T22 peptide: SCAAGASYAWPYCL

[31] = target: T23, Peptide-41; test: as above
T23 peptide: MDWCPRDLWVHCFA

[32] = target: T8, Peptide-87; test: as above
[33] = target: T22, Peptide-92; test: as above
[34] = target: T24, Peptide-151; test: as above
T24 peptide: SCSAGAAYYWPWCL

[35] = target: T25, Peptide-154; test: as above
T25 peptide: TCAAGAHYPWPACL

[36] = target: T26, Peptide-152; test: as above
T26 peptide: TCSAGATWAWPLCF

[37] = target: T27, Peptide-153; test: as above
T27 peptide: TCAAGATYLWPTCL

[38] = target: T28, Peptide-150; test: as above
T28 peptide: TCSAGAHYPWPICL

[39] = target: T29, Peptide-142; test: as above
T29 peptide: TCAAGATWSWPACF

[40] = target: T30, Peptide-144; test: as above
T30 peptide: LCAAGATYPWPLCL

B1: anti-CD28 Fab (Fab, V domains shown)
VH: QVQLVQSGAEVKKPGASVKVSCKASGYTFTSYYIHWVRQAPGQGLEWIGSIYPGNVNTNYNEKFKDRATLTVDTSISTAYMELSRLRSDDTAVYFCTRSHYGLDWNFDVWGQGTTVTVSS
VL: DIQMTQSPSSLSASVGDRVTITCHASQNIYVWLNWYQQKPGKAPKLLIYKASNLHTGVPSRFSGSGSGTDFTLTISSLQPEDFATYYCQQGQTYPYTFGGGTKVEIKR
[1]
  Off rate t½: 30 s
[2]
  Off rate t½: 54 s
[3]
  Off rate t½: 48 s
[4]
  Off rate t½: 54 s
[5]
  Off rate t½: 36 s
[6]
  Off rate t½: 24 s
[7]
  Off rate t½: 60 s
[8]
  Off rate t½: 42 s
[9]
  EC50: 3.1 nM
[10]
  EC50: 44.9 nM
[11]
  EC50: 1.3 nM
[12]
  EC50: 30.5 nM
[13]
  EC50: 3.2 nM
[14]
  EC50: 32.5 nM
[15]
  EC50: 128 nM
[16]
  EC50: 59.4 nM
[17]
  EC50: 2.1 nM
[18]
  EC50: 12.1 nM
[19]
  EC50: 7.8 nM
[20]
  EC50: 8.1 nM
[21]
  EC50: 28.1 nM
[22]
  EC50: 3.4 nM
[23]
  EC50: 7.1 nM
[24]
  EC50: 65.8 nM
[25]
  EC50: 1.7 nM
[26]
  EC50: 30.6 nM
[27]
  EC50: 11 nM
[28]
  EC50: 337 nM
[29]
  EC50: 97 nM
[30]
  EC50: 54 nM
[31]
  EC50: 490 nM
[32]
  EC50: 49 nM
[33]
  EC50: 18.9 nM
[34]
  EC50: 112 nM
[35]
  EC50: 4.2 nM
[36]
  EC50: 15.6 nM
[37]
  EC50: 20.5 nM
[38]
  EC50: 10.6 nM
[39]
  EC50: 4.5 nM
[40]
  EC50: 5.6 nM
